Experiment: soluble on expression in E. coli; label from the status in PepcDB or PDB records

Row | Sequence | soluble on expression in E. coli
1 | MHDANIRVAIAGAGGRMGRQLIQAALALEGVQLGAALEREGSSLLGSDAGELAGAGKTGVTVQSSLDAVKDDFDVFIDFTRPEGTLNHLAFCRQHGKGMVIGTTGFDEAGKQAIRDAAADIAIVFAANFSVGVNVMLKLLEKAAKVMGDYTDIEIIEAHHRHKVDAPSGTALAMGEAIAHALDKDLKDCAVYSREGHTGERVPGTIGFATVRAGDIVGEHTAMFADIGERLEITHKASSRMTFANGAVRSALWLSGKESGLFDMRDVLDLNNL | soluble
2 | MNHLGKTEVFLNRFALRPLNPEELRPWRLEVVLDPPPGREEVYPLLAQVARRAGGVTVRMGDGLASWSPPEVLVLEGTLARMGQTYAYRLYPKGRRPLDPKDPGERSVLSALARRLLQERLRRLEGVWVEGLAVYRREHARGPGWRVLGGAVLDLWVSDSGAFLLEVDPAYRILCEMSLEAWLAQGHPLPKRVRNAYDRRTWELLRLGEEDPKELPLPGGLSLLDYHASKGRLQGREGGRVAWVADPKDPRKPIPHLTGLLVPVLTLEDLHEEEGSLALSLPWEERRRRTREIASWIGRRLGLGTPEAVRAQAYRLSIPKLMGRRAVSKPADALRVGFYRAQETALALLRLDGAQGWPEFLRRALLRAFGASGASLRLHTLHAHPSQGLAFREALRKAKEEGVQAVLVLTPPMAWEDRNRLKALLLREGLPSQILNVPLREEERHRWENALLGLLAKAGLQVVALSGAYPAELAVGFDAGGRESFRFGGAACAVGGDGGHLLWTLPEAQAGERIPQEVVWDLLEETLWAFRRKAGRLPSRVLLLRNGRVPQDEFALALEALAREGIAYDLVSVRKSGGGRVYPVQGRLADGLYVPLEDKTFLLLTVHRDFRGTPRPLKLVHEAGDTPLEALAHQIFHLTRLYPASGFAFPRLPAPLHLADRLVKEVGRLGIRHLKEVDREKLFFV | soluble
3 | MRGSHHHHHHGRSLNPLSTPQFDSTDETPASYNLAVRRAAPAVVNVYNRGLNTNSHNQLEIRTLGSGVIMDQRGYIITNKHVINDADQIIVALQDGRVFEALLVGSDSLTDLAVLKINATGGLPTIPINARRVPHIGDVVLAIGNPYNLGQTITQGIISATGRIGLNPTGRQNFLQTDASINPGNSGGALVNSLGELMGINTLSFDKSNDGETPEGIGFAIPFQLATKIMDKLIRDGRVIRGYIGIGGREIAPLHAQGGGIDQLQGIVVNEVSPDGPAANAGIQVNDLIISVDNKPAISALETMAQVAEIRPGSVIPVVVMRDDKQLTLQVTIQEYPATN | soluble
4 | MQKEPRKVREFRRREQEILDTALKLFLEQGEDSVTVEMIADAVGIGKGTIYKHFKSKAEIYLRLMLDYERDLNELLHSADVDKDKEALSRAYFEFRMRDPQRYRLFDRLEEKVVKGNQVPELVEELHKIRASNFEHLTLLIKGRITEGKLEDVPPYYHYCAAWALVHGAVALYHSPFWSNVLEDQEGFFNFLMDIGVRMGNKRKRDTDVPAEPKPDPDV | not soluble
5 | MTNAGTTDLSWLPSDADEQLALGFKIVTNAYKTRVTSQEAEIRSLKGQLTEKQEQLSSIQKKYSNLEVQLIESTQRGNQLADENKQLITTIKKLNRDIDRLENLKKAVLNSIQEEHDVEDAHKYYSADDLLQTTAPRTMLEMNGNEDSCQSIINKIVNSDTHNIINGSFNSPYIGNVPLGEKNTDGRAFFRNARSRLSYEQFNQFLSNIKKLNNHQQKREETLKKAQAIFGEANLDLYEEFKVLISKHS | not soluble
6 | GMEVNQPDIVAQVQAAFVEYERALVENDIEAMNALFWHTPETVRYGIAEVQHGGEAIRAWRERCEPVPKSRKLHRTVVTTFGTDFATVSTEFTSDATPLLGRQMQTWARLSPADGWKIVAAHVSLIAMP | soluble
7 | MSLKTHKKVKIPILLKIAKLPKSSFYEWKHKLENTIDKDKELKEMIVDIFSKSFETYGYRRLKMALKSKGYIVNHKKILRLTKELGVQCIKFRTKNGRYSSYKGTVGKIADNVLKRNFHSLQANKLWCTDVTEFKVNGQKLYLSPIIDLYNDEIISYSIQTNPNLNLTNSMLDKALKKVKNTNGFLIHSDQGFHYQHISWAKKLEENNITQSMSRKGNCLDNAIIENFFGLLKQEIYYGEKYNSVEELTKRIHKYIYWYNNIRIKEKLKGLSPVQFRKQSCYNIEGHHHHHH | not soluble
8 | MTDKDLLHQKYYHGLLPREDIQEMLNKPGQFLLRTSEPVKGEKRQFVLSVVGEKNTSANHFVVREADHKVYVDKIGFPTIIELVNHYVSTKESFSTKDGTVKVVLKHAVERQKWELYHEDVELTKKLGEGAFGEVWKGKLLKILDANHQPVLVAVKTAKLESMTKEQIKEIMREARLMRNLDHINVVKFFGVAAGTEPLYVIMELADGGALDSALGKLHFPMIKKYELIYQAANGLAYIHEKNLMHRDVAARNCLYGGGQVKIADFGLSREGADYTMDLKKKVPIRWLPPETIRSGLYTPKTDVFAFGVMAWEITEDGKEPYPGFKVIEVAMKVLQGYRMPFSPEVNKEFAEFILTKCWPEKYEDRLPMKDICKWMKSSVKAQGGDTGPGGMMSKFGKKIKRSNSRESKSKSSTMTAAHGHDQGAMTAIEK | not soluble
9 | MAEEFVTLKDVGMDFTLGDWEQLGLEQGDTFWDTALDNCQDLFLLDPPRPNLTSHPDGSEDLEPLAGGSPEATSPDVTETKNSPLMEDFFEEGFSQEIIEMLSKDGFWNSNFGEACIEDTWLDSLLGDPESLLRSDIATNGESPTECKSHELKRGLSPVSTVSTGEDSMVHNVSEKTLTPAKSKEYRGEFFSYSDHSQQDSVQEGEKPYQCSECGKSFSGSYRLTQHWITHTREKPTVHQECEQGFDRNASLSVYPKTHTGYKFYVCNEYGTTFSQSTYLWHQKTHTGEKPCKSQDSDHPPSHDTQPGEHQKTHTDSKSYNCNECGKAFTRIFHLTRHQKIHTRKRYECSKCQATFNLRKHLIQHQKTHAAKTTSECQECGKIFRHSSLLIEHQALHAGEEPYKCNERGKSFRHNSTLKIHQRVHSGEKPYKCSECGKAFHRHTHLNEHRRIHTGYRPHKCQECVRSFSRPSHLMRHQAIHTAEKPYSCAECKETFSDNNRLVQHQKMHTVKTPYECQECGERFICGSTLKCHESVHAREKQGFFVSGKILDQNPEQKEKCFKCNKCEKTFSCSKYLTQHERIHTRGVKPFECDQCGKAFGQSTRLIHHQRIHSRVRLYKWGEQGKAISSASLIKLQSFHTKEHPFKCNECGKTFSHSAHLSKHQLIHAGENPFKCSKCDRVFTQRNYLVQHERTHARKKPLVCNECGKTFRQSSCLSKHQRIHSGEKPYVCDYCGKAFGLSAELVRHQRIHTGEKPYVCQECGKAFTQSSCLSIHRRVHTGEKPYRCGECGKAFAQKANLTQHQRIHTGEKPYSCNVCGKAFVLSAHLNQHLRVHTQETLYQCQRCQKAFRCHSSLSRHQRVHNKQQYCL | soluble
10 | MKITVIGAGNVGATTAFRLAEKQLARELVLLDVVEGIPQGKALDMYESGPVGLFDTKVTGSNDYADTANSDIVVITAGLPRKPGMTREDLLSMNAGIVREVTGRIMEHSKNPIIVVVSNPLDIMTHVAWQKSGLPKERVIGMAGVLDSARFRSFIAMELGVSMQDVTACVLGGHGDAMVPVVKYTTVAGIPVADLISAERIAELVERTRTGGAEIVNHLKQGSAFYSPATSVVEMVESIVLDRKRVLTCAVSLDGQYGIDGTFVGVPVKLGKNGVEHIYEIKLDQSDLDLLQKSAKIVDENCKMLDASQG | soluble
11 | MAHHHHHHMICEVLQCNRYPPCCGQYPNGEVNVVLPRSVRGDDLFVLQSLVRCDRVGLSHSGTLMELALMIHAARASSAARITAVIPYISFTESVSSMAAVAEILESMGCQHVITVDMPIDQVEGMFSVPLELISARYEFVQYIANQLTAEGHDFRNITVVAPNGAGVHRAKNFADALMQYKKLSPDEQFVPLCTAVRRQVYRGLQDTVLNINHCGANVGSTRAFEQALLQQEQGICAIQDDGDTTITSEGIDLVGDVQGKLCIVVDTSVDEATEICQTACKLREEGASRIILIATHFIISGRAVERLIESPIDLIVVTDSVEHDEVFKNPHIARRLRVLPIAPLLARAIEKLHTENSLTTLFEK | not soluble
12 | KQQLTEDGDSFLHLAIIHEEKALTMEVIRQVKGDLAFLNFQNNLQQTPLHLAVITNQPEIAEALLGAGCDPELRDFRGNTPLHLACEQGCLASVGVLTQSCTTPHLHSILKATNYNGHTCLHLASIHGYLGIVELLVSLGADVNAQEPCNGRTALHLAVDLQNPDLVSLLLKCGADVNRVTYQGYSPYQLTWGRPSTRIQQQLGQLTLENLQMLPESEDEESYDTESEFTEFTEDE | soluble
13 | MKWTVQQLRRFQHKEMAIDETVDVSDLKQIDTLIRDISPVHVQGKADVGSTKFTFHLTLSGTMVLPCSRTLVDVAYPFSIQTTETFFADGSGIVETDEDTHMVAGDTIDLNPIIRELILLEIPLQLIAEGPVAGGAPQHGEGWDVLSEEEWEKAMQEREKKVDPRLAGLAKFFEEKREE | not soluble
14 | NKDWTLAIRGNITYNKDKWIEGELPEQRYDWMNQYGQNILGKKGYIAEGLFTQAEIDDMARWESLSQANKATTPKPFASQFGTVKAGDIKYKDLNNDGQIDAYDKTYICRGDVPTMVYGFGFTLGWKNLSLGMMFQGTHDAERIMSGSSIQPFNGGGGSGNLYSNIDDRWTEDNPNQNAFYPRLSYGAETSSNINNFQPSTWWVRDFSFLRLKTMQISYNLPKDWVNKVRLKNAAVYVMGTNLFTLSKFKLWDPELNTDNGASYPNTTSYSVGVNFTF | not soluble
15 | SLRDSFHFKTYRKRRICPTMTLVLDLDETLIYCTKKRKYHYQKEVDVLINGKYLPLYVCKRPYIDLFFSSLYPFYEIIIFTTAIKSYADTVLNIIDVDHYIDKKFYREDCYEMNEKLYIKNLTNIKKELSKIILIDDSNISGFQYPDNFFPIKKWQGDLNDNELLHLIPFFLNLRKLKDIRSLCSFRLISQKDVSKLLCTSS | not soluble
16 | AFVVTDNCIKCKYTDCVEVCPVDCFYEGPNFLVIHPDECIDDALCEPECPAQAIFSEDEVPEDMQEFIQLNAELAEVWPNITEKKDPLPDAEDWDGVKGKLQHLER | soluble
17 | SAFQAAAARLGAPVSHDFCAISLSDLMTPWEVIEKRIEAAASADFVTAVYNPRSRDRYWQIHRFRELFLRHRSPSTPVGIVRNVTRKDESVVLTTLGEFDPDSLDMFTMMLVGNSTTF | not soluble
18 | MSLNNRSETMKYKRIVFKVGTSSLTNEDGSLSRSKVKDITQQLAMLHEAGHELILVSSGAIAAGFGALGFKKRPTKIADKQASAAVGQGLLLEEYTTNLLLRQIVSAQILLTQDDFVDKRRYKNAHQALSVLLNRGAIPIINENDSVVIDELKVGDNDTLSAQVAAMVQADLLVFLTDVDGLYTGNPNSDPRAKRLERIETINREIIDMAGGAGSSNGTGGMLTKIKAATIATESGVPVYICSSLKSDSMIEAAEETEDGSYFVAQEKGLRTQKQWLAFYAQSQGSIWVDKGAAEALSQHGKSLLLSGIVEAEGVFSYGDIVTVFDKESGKSLGKGRVQFGASALEDILRSQKAKGVLIYRDDWISITPEIQLLFTEFEGHHHHHH | soluble
19 | MKKMLTFLTTCALSFGVSAQSWEETTEKARGQTVYFHAWGGSQEINSYLRWSADLLKSRYGVTLQHVKVTDIAETTTRLIAEKAAGKNEQGSVDLVWINGENFKSMKNNQLLYGPFVEDLPNWPKVDKSLPVDSDFSEPTEGLEAPWGVGQLVFIHDKQQVNNPPASFAELLSYAQAFPNRISYPQPPEFHGTSFLKAALIELTHYAPELNQAVEPATFEQLTQPLWQYLDELHAVAWRKGKQFPAGSAQMMQLLDDGQLDLAITFNPNAVFSAQATGKLAPTAQSYAMKKGALTNIHFLAIPWNANAKEGALVAINFLLSDEAQSRKGDLSIWGDPSILKPQFLTGSAKNTILFPAIAEPHPSWQSALEAEWQKRYGNSLK | not soluble

— the DeepSol protein solubility set
